The target in assay [1] is T1, D′D3 albumin fusion protein (D′D3-FP), dimer (human, Covalent homodimer: the two chains are joined by disulfide bridge(s) within the D3 part (paragraph 124 names Cys-1099, Cys-1142, Cys-1222, Cys-1225, Cys-1227 in SEQ ID NO:4 numbering). N-glycosylated, …).
T1 construct: It was expressed in CHO K1 cells with the VWF propeptide, which is cleaved by co-transfected furin; The dimer fraction was isolated by size exclusion chromatography; The description says the dimer is a disulfide-linked homodimer; In the SPR assay it was captured on an anti-albumin antibody; also called dimeric D′D3-FP; rD′D3-FP
In words: SPR (Biacore T200), D′D3-FP captured on anti-albumin antibody, rVIII-SingleChain as analyte, single cycle kinetics, 25° C.; D′D3-FP dimer preparation. On the procedure: (§1) An anti-albumin antibody (MA1-20124, Thermo Scientific) was covalently coupled via its N-terminus to an activated CM 3 chip by NHS (N-Hydroxysuccinimide) and EDC […], both contained in the amine coupling kit (BR1000-50) from GE Healthcare. For immobilization 3 μg/mL of the antibody were diluted in sodium acetate buffer (10 mM, pH 5.0) and the antibody solution was flown over the chip for 7 min. at a flow rate of 10 μL/min. After the immobilization procedure non-coupled dextran filaments were saturated by flowing ethanolamine solution (1 M, pH 8.3) over the chip for 5 min (at a flow rate of 10 μL/min). The aim of saturating the flow cell was to minimize unspecific binding of the analytes to the chip. A reference flow cell was set up by saturating an empty flow cell with ethanolamine by using the same procedure as above.
(§2) Dimeric and monomeric D′D3-FP proteins, respectively, were immobilized to the covalently coupled anti-albumin antibody by a flow of the D′D3-FP proteins (5 μg/mL) over the chip for 3 min (flow rate of 10 μL/min).
(§3) To create binding curves for FVIII, each D′D3-FP protein preparation was diluted in running buffer (HBS-P+: 0.1 M HEPES, 1.5 M NaCl and 0.5% v/v Surfactant P20, pH 7.4; product code BR100671, GE Healthcare) to concentrations of 0.25 nM, 0.5 nM, 1 nM, 3 nM and 4 nM. […]

Assay [2] addresses T1, D′D3 albumin fusion protein (D′D3-FP), …. In words: SPR (Biacore T200), D′D3-FP captured on anti-albumin antibody, rVIII-SingleChain as analyte, single cycle kinetics, 25° C. The procedure: as §1, §2, §3

The text below walks through data of patent US20220389082A1 (CSL BEHRING LENGNAU, published 2022).

T1 sequence (chain, as listed by the source limits assumed, chain 1 of 2): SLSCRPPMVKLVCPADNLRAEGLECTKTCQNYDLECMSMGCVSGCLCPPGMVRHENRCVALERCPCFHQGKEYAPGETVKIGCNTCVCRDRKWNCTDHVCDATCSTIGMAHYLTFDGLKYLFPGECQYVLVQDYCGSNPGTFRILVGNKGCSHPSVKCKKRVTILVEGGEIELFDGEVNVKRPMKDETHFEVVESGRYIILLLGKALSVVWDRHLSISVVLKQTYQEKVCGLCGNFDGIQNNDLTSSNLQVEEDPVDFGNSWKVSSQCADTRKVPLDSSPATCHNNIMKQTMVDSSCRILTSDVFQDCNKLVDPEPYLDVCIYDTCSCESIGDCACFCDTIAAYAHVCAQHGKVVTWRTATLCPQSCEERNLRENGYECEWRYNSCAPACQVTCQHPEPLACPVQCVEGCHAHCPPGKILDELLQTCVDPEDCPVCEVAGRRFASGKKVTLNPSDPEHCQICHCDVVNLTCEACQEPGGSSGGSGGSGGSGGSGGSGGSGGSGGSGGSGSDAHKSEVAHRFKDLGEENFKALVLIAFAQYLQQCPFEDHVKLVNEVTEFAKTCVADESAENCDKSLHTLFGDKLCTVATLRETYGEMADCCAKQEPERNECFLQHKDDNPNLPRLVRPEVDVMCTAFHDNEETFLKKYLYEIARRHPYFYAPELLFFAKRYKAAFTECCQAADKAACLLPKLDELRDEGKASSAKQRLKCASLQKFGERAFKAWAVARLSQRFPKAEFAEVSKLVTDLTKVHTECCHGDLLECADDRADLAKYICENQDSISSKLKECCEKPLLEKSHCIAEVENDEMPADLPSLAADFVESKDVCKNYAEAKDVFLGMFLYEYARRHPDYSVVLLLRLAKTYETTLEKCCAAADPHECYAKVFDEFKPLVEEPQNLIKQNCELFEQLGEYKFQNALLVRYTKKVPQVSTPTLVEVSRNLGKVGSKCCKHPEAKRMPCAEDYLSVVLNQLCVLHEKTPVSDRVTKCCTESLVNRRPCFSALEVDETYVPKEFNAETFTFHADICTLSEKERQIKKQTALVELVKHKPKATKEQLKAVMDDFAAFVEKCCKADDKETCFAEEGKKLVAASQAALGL
T1 sequence (chain, as listed by the source limits assumed, chain 2 of 2): as the sequence (chain, as listed by the source limits assumed, chain 1 of 2) above

B1: rVIII-SingleChain (single chain Factor VIII molecule, construct dBN(64-53) of WO 2004/067566) (other)
chain: ATRRYYLGAVELSWDYMQSDLGELPVDARFPPRVPKSFPFNTSVVYKKTLFVEFTDHLFNIAKPRPPWMGLLGPTIQAEVYDTVVITLKNMASHPVSLHAVGVSYWKASEGAEYDDQTSQREKEDDKVFPGGSHTYVWQVLKENGPMASDPLCLTYSYLSHVDLVKDLNSGLIGALLVCREGSLAKEKTQTLHKFILLFAVFDEGKSWHSETKNSLMQDRDAASARAWPKMHTVNGYVNRSLPGLIGCHRKSVYWHVIGMGTTPEVHSIFLEGHTFLVRNHRQASLEISPITFLTAQTLLMDLGQFLLFCHISSHQHDGMEAYVKVDSCPEEPQLRMKNNEEAEDYDDDLTDSEMDVVRFDDDNSPSFIQIRSVAKKHPKTWVHYIAAEEEDWDYAPLVLAPDDRSYKSQYLNNGPQRIGRKYKKVRFMAYTDETFKTREAIQHESGILGPLLYGEVGDTLLIIFKNQASRPYNIYPHGITDVRPLYSRRLPKGVKHLKDFPILPGEIFKYKWTVTVEDGPTKSDPRCLTRYYSSFVNMERDLASGLIGPLLICYKESVDQRGNQIMSDKRNVILFSVFDENRSWYLTENIQRFLPNPAGVQLEDPEFQASNIMHSINGYVFDSLQLSVCLHEVAYWYILSIGAQTDFLSVFFSGYTFKHKMVYEDTLTLFPFSGETVFMSMENPGLWILGCHNSDFRNRGMTALLKVSSCDKNTGDYYEDSYEDISAYLLSKNNAIEPRSFSQNSRHPSTRQKQFNATTIPENTTLQSDQEEIDYDDTISVEMKKEDFDIYDEDENQSPRSFQKKTRHYFIAAVERLWDYGMSSSPHVLRNRAQSGSVPQFKKVVFQEFTDGSFTQPLYRGELNEHLGLLGPYIRAEVEDNIMVTFRNQASRPYSFYSSLISYEEDQRQGAEPRKNFVKPNETKTYFWKVQHHMAPTKDEFDCKAWAYFSDVDLEKDVHSGLIGPLLVCHTNTLNPAHGRQVTVQEFALFFTIFDETKSWYFTENMERNCRAPCNIQMEDPTFKENYRFHAINGYIMDTLPGLVMAQDQRIRWYLLSMGSNENIHSIHFSGHVFTVRKKEEYKMALYNLYPGVFETVEMLPSKAGIWRVECLIGEHLHAGMSTLFLVYSNKCQTPLGMASGHIRDFQITASGQYGQWAPKLARLHYSGSINAWSTKEPFSWIKVDLLAPMIIHGIKTQGARQKFSSLYISQFIIMYSLDGKKWQTYRGNSTGTLMVFFGNVDSSGIKHNIFNPPIIARYIRLHPTHYSIRSTLRMELMGCDLNSCSMPLGMESKAISDAQITASSYFTNMFATWSPSKARLHLQGRSNAWRPQVNNPKEWLQVDFQKTMKVTGVTTQGVKSLLTSMYVKEFLISSSQDGHQWTLFFQNGKVKVFQGNQDSFTPVVNSLDPPLLTRYLRIHPQSWVHQIALRMEVLGCEAQDLY
notes: also called FVIII
B1: in assay [1], the Kd was found to be 0.034 nM. Also, in assay [2], the koff is 0.0015 s⁻¹ and the on-rate constant (kon) amounted to 4.5e+07 M⁻¹ s⁻¹.
